Reference: the nanobody polyreactivity screen of Harvey et al. (2022)

Experiment: yeast display, Sf9 membrane polyspecificity reagent, FACS + sequencing; frameworks hold sequencing errors
Procedure, shortened: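 A nanobody's polyreactivity label depends on the gate it was sorted from. Yeast display cells were stained with 10% biotinylated, detergent-solubilized Sf9 membrane reagent for 1 hour at 4 °C, enriched on streptavidin microbeads and sorted by FACS. The low and high (top ~1%) gates were set on anti-HA fluorescence for expression and streptavidin fluorescence for reagent binding.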

Sequence | polyreactivity (PSR sort gate)
QVQLVESGGGLVQAGGSLRLTCADSGNILLFNAMGWYRQAPGKERELVATINQSGGRTYYADSVKGRFTISRDNAKNTVYLQMNSLKPEDTAVYYCNAERHPYYYWHTQRLDYWGQGTQVTVSS | low polyreactivity
QVQLVESGGGLVQAGGSLRLTCADSGSIFYYYGMGWYRQAPGKERELVASITQSGVSTYYADSVKGRFTISRDNANNSVYLQMNSLKPEYTAVYYCAAGTVSGVDYWGQGTQVTVSS | high polyreactivity
QVQLVESGGGLVQAGGSLRLTCAPSGRIFTRNTMGSYRQAPGKERELVAAISTGASTYYADSVKGRFTISRDNATNSVYLQMNSLKPEVTAVYYCATRGYARYWGLGTQVTVSS | low polyreactivity
QVQLVESGGGLVQAGGSLRLTCASSGRIYVVNAMGWYRQAPGKEMELVADIYRSGGSTYYADSVKGRFTISRDYAKNTVYLQMNSLKPEDTAVYYCAAEDWPSSPSAPGFDYDYWGQATQVTVSS | low polyreactivity
QVQLVESGGGLVQAGGSLRLTCDASGITFRLYAMGWSRQAPGKETELVARITDRGSTYYADSVKGRFTISRDNAKNTVYLQMNSLKPEDTAVYYCAARGYRGLVQLRYGYWGQGTQVTVSS | high polyreactivity
QVQLVESGGGLVQAGGSLRLTCDASGITYYGYAIGWSRQAPGKEREWVAGINNGGSTTYADSVKGRFTISRDNAKITVYLQMNSVKPEDTAVYYCAADPVYLNKLLYYVGQAYYYWGQGTQVTVSS | high polyreactivity
QVQLVESGGGLVQAGGSLRLTCDASGSTFYIYAMGWYRQAPGKERELVARISGSCGSTYYADSVKGRFTISRDNAKNTVYLQMNSLKPEETAVYDCASDDIYKNYQYYAFPYYRYDYWGQGTQVTVSS | low polyreactivity
QVQLVESGGGLVQAGGSLRLTCSASGIILYYYAMGWNRQAPGKERELVAAISSSGGSTYYADSVKGRFTFSRDNAKNTVYLQMKSLKPEDTAVYYCAAWVVPLRYAYGRLTYNYWGQGTQVTVSS | high polyreactivity
QVQLVESGGGLVQAGGSLRLTSADSGRTLYNYAMRWYRQAPGKERELVAGISSAGSTNYADSVKGRFTISRDNAKNTVYLQMNSLKPEDTAVYYCNAVLRRRWVTFYYWGQGPQVTVSS | high polyreactivity
QVQLVESGGGLVQAGGSLRLTSAGSGSTFSYYTMGWYRQAPGKERELVATIRSTGSTTYADSVKGRFTISRDNVKNTVYLQMNSLKPEDTAVYFCAARSRWGGYIHTGYDYWGQGTQVTVSS | low polyreactivity
QVQLVESGGGLVQAGGSLRLTWAATGSIFRTNAMGSYRPAPGKERELVAAITGSGGSTYYADSVKGRFTISRYNAKNTVYLQMNCLKPEETAVYYCAAEFGSFVSPYNYYYWGQGTQVTVSS | low polyreactivity
QVQLVESGGGLVQAGGSLRSSCAASGSLFTSNTMGWHRQAPGKERELVAAITSSGGSMFYADSVKGRFTISRDNAKNTVYLQMNSLKPEDNAVYYCAADTIGYHDWYDYWGQGTQVTVSS | low polyreactivity
QVQLVESGGGLVQAGGSLRVSCAASGFIFGDYAMGWYRQAPGKERELVAAINRGASTYYADSVKGRFTISRDNAKNTVYLQMNSLKPEDTAVYYCAAAGYSRGGRGGYWGQGTHVTVSS | high polyreactivity
QVQLVESGGGLVQAGGSLRVSCAASGFIFPGNAMGWYRQAPGKERELVAAISNSGSRTYYADSVKGRFTISRDNAKNTVYLQMNSLKPEDTAVYYCNADVHNRGWPYDYWGQGTQVTVSS | low polyreactivity
QVQLVESGGGLVQAGGSLRVSCAASGFIFYGYTMGWYREAPGKERELVARISRRGGSTYYADSVKGRFTISRDNAKNTVYLQMNSLKPEDTAVYYCATRALGHFDWGQGTQVTVSS | low polyreactivity
QVQLVESGGGLVQAGGSLRVSCAASGFTFSDYAMGWYRQAPGKESELVAGISSGGSTNYADSVKGLFTISRDNAKNTVYLQMNSLKPDDTAVYYCAADLYATWSYFFTWLDYWGQGTQVTVSS | high polyreactivity
QVQLVESGGGLVQAGGSLRVSCAASGGIFGLYTMGWYRQAPGTERELVAGISKRGTRTRYADSVKGRFTISRDNAKNTVYLQMNSLKPDDTAVYYCNADYYVSKLDDWGQGTQVTVSS | high polyreactivity
